Results taken from article PMC7719796, “Structural Insights on Tiny Peptide Nucleic Acid (PNA) Analogues of miRNA-34a: An in silico and Experimental Integrated Approach” (Frontiers in Chemistry, 2020).

System: Kelly neuroblastoma cells
Assay: PNA cellular uptake assay (fluorescence of cell lysate)
Type: cell-based, Human
Conditions: 0.1 μM in Opti-MEM, no transfecting agent, 24 h incubation (text; method: 6 h at 37°C, then 48 h), fluorescence of cell lysate and media 485/535 nm, 3 biological repeats and 4 technical repeats
Source text: Cellular uptake of the described tiny PNA sequence was studied in vitro on Human Kelly neuroblastoma cell line, without the use of any transfection agents, and compared to previously reported results from our group (Piacenti et al., [2019]). In particular, the PNA oligomers were provided with short peptide carriers at both termini consisting of a trilysines segment at the C-terminus and one lysine at the N-terminus (FITC-PNA2) or Cys-Lys dipeptide at the N-terminus (FITC-PNA3) (Table 1), that was previously reported by Fabani et al. ([2010]) to promote cellular uptake for PNA single strands. Kelly cells were incubated for 24 h with FITC-PNA2 or FITC-PNA3 sequences individually, at minimal 0.1 μM concentration in optiMEM, without the use of any transfecting agent and using a protocol for miRNA mimics delivery, which was previously optimized (Curtin, [2018]). Both peptide carriers were able to provide internalization of PNA sequences albeit to a different extent (Figure 9A); uptake was slightly higher than 3% for FITC-PNA2 and almost 5% for FITC-PNA3.
Kelly cells were seeded in 6-well plates in duplicates at 0.5 × 10^6 density. […] The fluorescence of the cell lysate and of the media was read in a dual beam plate reader, at 485/535 nm.

| Substance | Cellular uptake (internalization) |
| --- | --- |
| FITC- Ahx -CK - tggcagtg—KKK- NH2 [FITC-PNA3, PNA1 with Cys-Lys at N-terminus and KKK at C-terminus, FITC-Ahx; reported in previous work, used for comparison] | ~5% |
| FITC- Ahx -K- tggcagtg—KKK-NH2 [FITC-PNA2, PNA1 with K at N-terminus and KKK at C-terminus, Ahx linker and FITC fluorescent tag] | higher than 3% |
